Measured values published in US20210132068A1.

Target: CD20 on CD20+ Daudi lymphoma cells (UniProt P11836)
Assay: flow cytometry on CD20+ Daudi lymphoma cells, 30 minutes at 4° C.

Sequence of UniProt P11836 (P11836 whole entry): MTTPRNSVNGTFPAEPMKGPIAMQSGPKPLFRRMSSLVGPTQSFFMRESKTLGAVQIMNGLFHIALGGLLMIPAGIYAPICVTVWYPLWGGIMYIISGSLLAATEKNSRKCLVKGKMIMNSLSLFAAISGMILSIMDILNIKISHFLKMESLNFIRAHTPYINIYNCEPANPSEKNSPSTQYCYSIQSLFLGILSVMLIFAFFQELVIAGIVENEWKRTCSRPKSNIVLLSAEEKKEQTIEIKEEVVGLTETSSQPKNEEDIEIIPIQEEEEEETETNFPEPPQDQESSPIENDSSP

- % positive cells: 95%
Substance: FITC-rituximab (antibody)
